Biological target: IKZF1 (Ikaros), recombinant (Homo sapiens, UniProt Q13422 1-519)
Assay: EMSA; 1 ug IKZF1 alone; EMSA per LI-COR kit protocol (829-07910), 100 nM IR700 probe, 4-12% TBE gel in 0.5x TBE; binding buffer, pH and temperature not stated
Conditions: protein: commercial; chain copies: 2; label: IRDye 700

IKZF1 (Ikaros), recombinant, sequence (Q13422 whole entry): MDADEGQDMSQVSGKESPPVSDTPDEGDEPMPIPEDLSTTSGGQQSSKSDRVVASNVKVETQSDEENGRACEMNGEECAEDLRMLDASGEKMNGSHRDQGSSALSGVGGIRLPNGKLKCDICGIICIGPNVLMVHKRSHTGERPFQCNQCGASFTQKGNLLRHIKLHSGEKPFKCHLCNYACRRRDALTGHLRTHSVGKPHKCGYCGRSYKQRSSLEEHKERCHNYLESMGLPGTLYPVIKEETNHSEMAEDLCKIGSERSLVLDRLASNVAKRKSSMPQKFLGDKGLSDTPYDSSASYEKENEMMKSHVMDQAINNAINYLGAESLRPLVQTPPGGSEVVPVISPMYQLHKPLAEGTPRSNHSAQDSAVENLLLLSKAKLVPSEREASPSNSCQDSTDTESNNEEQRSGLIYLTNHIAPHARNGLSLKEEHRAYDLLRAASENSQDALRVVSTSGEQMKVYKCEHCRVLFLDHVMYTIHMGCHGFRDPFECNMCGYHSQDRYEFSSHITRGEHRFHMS

B1: IL10 CNS9 WT probe (dsDNA)
DNA 1: GAGGTTGCAGTTTCGTTGTGAGTCAGGCCTGCTGA
DNA 2: TCAGCAGGCCTGACTCACAACGAAACTGCAACCTC
binding result: no binding
